Assay results reported in US20210363214A1 (University of Washington, published 2021).

B1: TMHC3 (designed binder)
chain: MSEELRAVADLQRLNIELARKLLIAVALLQLLNILLVMLTSELTDEKTILWMIVIVMFLSLAIVIVALREIRRAKEESRKIADESR
notes: De novo designed hairpin, entered as one protomer; It self-associates into a homotrimer with six TM helices; also called designed transmembrane trimer TMHC3; not shown: C-terminal hexa-histidine tag from pET-29b (gene without stop codon, NdeI/XhoI)
B2: TMHC2 (transmembrane hairpin C2) (designed binder)
chain: MTRTEIIRELERSLRLQLVLAIFLMALLIVLLWLQQNGSSNNNVNYLLIVILVLVLVIVALAVTQKYLVEQLKRQD
notes: De novo designed two-helix transmembrane hairpin, entered here as one protomer; It was expressed from pET-28b with an N-terminal hexa-histidine tag and a thrombin site

Legend:
[1] = target: the molecule itself; test: AUC in detergent solution; self-association to homotrimer
From the text: We used a similar approach to design a transmembrane trimer with six membrane spanning helices (TMHC3) based on the 5L6HC3_1 scaffold (PDB ID: 5IZS). Guided by the results with the C2 designs, we chose a hydrophobic span of ˜30 Å (20 residues) (FIG. 4A). The design was expressed in E. coli and purified to homogeneity, eluting on a gel filtration column as a single homogeneous species (FIG. 5C).
(§1) Analytical ultracentrifugation (sedimentation velocity and sedimentation equilibrium) experiments were carried out using a Beckman XL-I analytical ultracentrifuge (Beckman Coulter) equipped with an eight-cell An-50 Ti rotor. The proteins were run in 20 mM sodium phosphate, pH 7.0, containing 200 mM NaCl supplemented with 0.5% C8E5, no density matching was necessary and the solvent density was calculated as 1.0075 g mL⁻¹. The partial specific volume of the protein was calculated by the program Sednterp™ (37). For sedimentation velocity, absorbance at 230 nm versus radial location was recorded during centrifugation at 50,000 rpm at 20° C. For sedimentation equilibrium, data were collected by UV detector at 20° C. for at least two protein concentrations at three rotor speeds. The data of sedimentation velocity and sedimentation equilibrium were analyzed using Sedfit™ and Sedphat™.

[2] = target: the molecule itself; test: AUC in detergent solution (C8E5); self-association to homodimer
Method: The dimer design with the shortest hydrophobic span (15 residues, TMHC2_S) was poorly behaved in both E. coli and mammalian cells, but the dimer designs with longer spans TMHC2, TMHC2_E and TMHC2_L localized to the cell membrane when expressed in HEK293T cells (data not shown) and in E. coli. The designed proteins were purified by extracting the E. coli membrane fraction with detergent, followed by nickel-NTA chromatography and size exclusion chromatography (SEC) with a yield of ˜2 mg/L (FIG. 6A-B). […] For the single chain scTMHC2 the major species in SEC was the monomer with a small side peak that was readily removed by purification (FIG. 6B).
as §1, with “For sedimentation equilibrium, data were collected by UV detector at 20° C. for at least two protein concentrations at three rotor speeds.” left out

Protein	binding result [1]	binding result [2]
B1	binds	
B2		binds
